These results are taken from US20110151538A1.

In the experiment the target is CBM-Coh (carbohydrate-binding module and type-I cohesin from C. thermocellum CipA) (Clostridium thermocellum). As to the kind of experiment: ELISA, plates coated with CBM-Coh; wtDoc-Xyn in 10 mM EDTA against wtDoc-Xyn in 1 mM CaCl2.

As to “wtDoc-Xyn (wild-type C. thermocellum Cel48S dockerin fused to the N-terminus of G. stearothermophilus xylanase T-6, C-terminal His tag)”, the ΔΔG (in EDTA relative to Ca2+) was found to be 2.01 kcal/mol.
